From patent US20130280318A1, “Tissue Scaffolds for Controlled Release of Active Agents” (The Trustees of Columbia University in the City of New York, priority 2010, published 2013)

Tested on: Chondrocytes
Experiment: Chondrocyte growth on scaffolds (total DNA, Picogreen)
Format: cell-based, bovine
Settings: TGF-β3 released from tissue scaffold
Protocol: Chondrocytes enzymatically digested from bovine calves (6×10^4 cells/cm^2) were cultured on scaffolds in serum-free ITS+ media. Experimental group included PLGA-TGFβ3 scaffolds, while cells cultured on PLGA and on PLGA with exogenous TGF-β3 (1 ng/mL) served as controls. Viability was evaluated with confocal microscopy (n=3).
Total DNA (n=6) was quantified by Picogreen Assay. Glycosaminoglycan (GAG) and collagen syntheses (n=6) were assessed by dimethylmethylene blue (DMMB) and Sircol assays, respectively. Gene expressions (Col I, II, and X) were analyzed by RT-PCR (n=4).

B1: transforming growth factor-beta 3 (protein, UniProt P10600 301-412, looked up)
Transforming growth factor …: ALDTNYCFRNLEENCCVRPLYIDFRQDLGWKWVHEPKGYYANFCSGPCPYLRSADTTHSTVLGLYNTLNPEASASPCCVPQDLEPLTILYYVGRTPKVEQLSNMVVKSCKCS
modifications: Transforming growth factor beta-3
- bioactivity of released TGF-β3 (chondrocyte proliferation and biosynthesis): bioactive
